Several values for one entry are separate records, joined by “and”; a condition that tells them apart may be missing. Equal values may be shown once. Where a name gives a salt, the structure may show the parent alone.
Legend:
[1] = system: HCT116 human colon cancer cells; assay: In vitro cytotoxicity (MTS), HCT116; format: cell-based; details: HCT-116, 72 h, HCT-116 cells, GEM equivalent
Method: (§1) HCT116 and Colo205 human colon cancer cells were procured from Duke Cell Culture Facility and were cultured in complete media containing Minimum Essential Medium Eagle (MEME) supplemented with 10% Fetal Bovine Serum (FBS). Cells were maintained at 37° C. and 5% CO2 and passaged every 2-3 days. […] 20 μL of CellTiter 96 AQueous™ (Promega; Madison, Wis.) 3-(4,5,-[…])-5-(3-carboxymethoxyphenyl)-2-(4-sulfophenyl)-2H-tetrazolium (MTS) solution was added to each well and incubated at 37° C. After 2 h of incubation, the absorbance of the solution was measured at 490 nm with a Victor3 microplate reader (Perkin Elmer; Waltham, Mass.).

[2] = system: Colo205 human colon cancer cells; assay: In vitro cytotoxicity (MTS), Colo205; format: cell-based; details: COLO 205, 72 h, Colo 205 cells, GEM equivalent
Method: as §1

[3] = reported value in nude mice; cited from earlier work
[4] = system: subcutaneous HCT116 tumors; assay: Tumor regression, subcutaneous HCT116 xenograft; format: in vivo, mice; details: 25 mg·kg^−1 GEM equivalent i.v. on day 0, 2 and 4, n=6
Method: The PBS control or drugs were administered by tail vein infusion (50 μL/min) of 500 μL. Tumor dimensions and BW were determined 3-4 times a week, and the tumor volume was calculated using the equation: volume [mm^3]=length×width×width×1/2.
BW of mice were monitored and the mice were euthanized upon exceeding 15% loss in BW or if their tumors volume was greater than 1000 mm^3. […] The maximum tolerated dose (MTD) was determined in mice with tumors. Kaplan-Meier analysis was used to compare the cumulative survival and the Sidak test, Tukey Test, Wilcoxon test were carried out using GraphPad Prism 6 software.

[5] = SMM conjugation ratio by Ellman's reagent assay; format: physicochemical
Method: Determination of SMM Conjugation Ratio:
Following purification, 2-3 mg of lyophilized ATBP was dissolved in 1 mL ddH20. In order to break any pre-existing disulfide bonds between unconjugated cysteine residues, 100 μL of the conjugate was incubated with 100 μL of Immobilized TCEP Reducing Gel (Thermo Fisher Scientific; Rockford, Ill.) for 1 hr at 25° C. Included spin columns were utilized to separate the TCEP beads from the ATBP conjugates. The solution was then split for use in two parallel assays. To determine the ATBP concentration, a 96-well bicinchoninic acid assay (Thermo Fisher Scientific) was used on a Victor3™ microplate reader (Perkin Elmer; Waltham, Mass.). 10 μL of ATBP solution was mixed with 200 μL of BCA working reagent, incubated for 30 min at 37° C., and was compared to an ATBP standard curve (100, 50, 25, 10, 5, 0 μM) fit to a 2nd order polynomial in order to estimate the ATBP concentration for the absorbance at 560 nm. Each conjugate was measured in triplicate. To determine the concentration of free thiols, a 96-well Ellman's assay was developed for use on the Victor3™ microplate reader at an absorbance of 405 nm. 40 μL of an ATBP solution was mixed with 200 μL of a working reagent (25 μM Ellman's reagent in 100 mM phosphate buffer, 1 mM EDTA, pH 8.0), incubated for 2 h at 25° C., and was compared to a standard curve of the ATBP prior to conjugation (100, 50, 25, 10, 5, 0 μM). […] The conjugation ratio was the difference between the number of cysteines (8/ATBP) and the calculated number of free cysteines.

[6] = Static light scattering (Rg, Nagg, shape factor); format: physicochemical; details: for ρ (Rg/Rh) shape factor: computed from DLS and SLS data; for Nagg (chains per nanoparticle) / Rg: nanoparticles; for Nagg (chains per nanoparticle): SLS; for Rg: SLS partial Zimm plot
Method: (§2) Static and Dynamic Light Scattering:
(§3) Static and dynamic light scattering measurements were performed on an ALV/CGS-3 goniometer system (Langen, Germany) to determine the Rh and Rg of the ATBP and ATBP-SMM nanoparticle. For the ALV/CGS-3 goniometer system, ATBP and ATBP-SMM conjugates were resuspended in PBS and filtered through 0.22 μm Millex-GV filters into a 10 mm diameter disposable borosilicate glass tube (Fisher). SLS and DLS were measured simultaneously at 22° C. for angles between 30°-150° at 5° increments, where the measurements at each angle was of 3 runs for 15 seconds. The differential refractive index (dn/dc) was quantified by determining the refractive index at five different dilutions using an Abbemat 500 refractometer (Anton Paar, Graz, Austria). DLS data were analyzed by fitting the autocorrelation function to a biexponential decay using the HDRC software package (Germany). The Rh was plotted against angle and extrapolated to zero scattering angle in order to eliminate the effect of the form factor and observe the true hydrodynamic radius. Partial Zimm plots were used to analyze the SLS measurements and ALV/Dynamic and Static FIT and PLOT software was used to determine the Rg and MW of the nanoparticles. The Nagg was calculated by dividing the MW of the nanoparticles by the MW of the ATBP or ATBP-SMM conjugate.
(§4) The detailed procedure was identical to that used to characterize ATBP-SMM conjugates.

[7] = Dynamic light scattering (hydrodynamic radius); format: physicochemical; details: ATBP or ATBP-SMM conjugate nanoparticles, DLS in PBS at 22° C.
Method: as §2, §3, §4

[8] = Temperature-programmed turbidimetry (transition temperature Tt); format: physicochemical; details: for Tt, Concentration 25 μM / Tt, Concentration 50 μM / Tt, Concentration 100 μM: ATBP or ATBP-SMM conjugate in PBS; for Tt, Concentration 25 μM: ATBP concentration 25 μM; for Tt, Concentration 50 μM: ATBP concentration 50 μM; for Tt, Concentration 100 μM: ATBP concentration 100 μM
Method: Temperature-Programmed Turbidimetry:
To determine the Tt ATBP-SMM conjugate or parent ATBP were resuspended in PBS at ATBP concentrations of […] and the optical density of each sample was measured at 350 nm by ramping the temperature at a rate of 1° C./min on a temperature-controlled UV-vis spectrophotometer (Cary 300 Bio; Varian Instruments, Palo Alto, Calif.). The Tt was determined from the inflection point of the turbidity profile. […]

[9] = Pyrene fluorescence assay (critical aggregation concentration); format: physicochemical
Method: The CAC of ATBP and ATBP-SMM conjugates were determined by fluorescence spectroscopy using pyrene which was utilized as a probe of the local hydrophobicity. The ratio of the first fluorescence emission peak (I370-373) and the third peak (I381-394) were measured at different ATBP concentrations. The inflection point of the curves was used to determine the CAC.
ATBP-GEM was characterized by DLS, SLS, cryo-TEM, AFM, temperature programmed turbidimetry and pyrene fluorescence assay. The detailed procedure was identical to that used to characterize ATBP-SMM conjugates.

[10] = Table 1, ATBP or ATBP-SMM conjugate, pyrene assay

Molecule: Nc1ccn([C@@H]2O[C@H](CO)[C@@H](O)C2(F)F)c(=O)n1 [GEM, Gemcitabine]
- IC50 [1]: ~4.1 nM
- IC50 [2]: ~46.4 nM
- terminal half-life [3]: 3.4 h
- median survival time [4]: 21 days
- mean tumor volume ([4]; 12 days after treatment): 343 mm^3

Molecule: O=C1C=CC(=O)N1O [SMM 1, N-hydroxymaleimide]
- #SMM/ATBP (number of SMM conjugated per ATBP) [5]: 7.4
- ρ (Rg/Rh) shape factor [6]: 0.81
- Nagg (chains per nanoparticle) [6]: 41
- Rg [6]: 77.0 nm
- Rh [7]: 87.3 nm
- Tt, Concentration 25 μM [8]: 49 C
- Tt, Concentration 50 μM [8]: 46 C
- Tt, Concentration 100 μM [8]: 41 C
- CAC [9, 10]: 8.2 µM

Molecule: Cl.NCCN1C(=O)C=CC1=O [SMM 2, N-1-(2-Amino-ethyl)-pyrrole-2,5-dione hydrochloride]
- #SMM/ATBP (number of SMM conjugated per ATBP) [5]: 6.9
- ρ (Rg/Rh) shape factor [6]: 1.14
- Nagg (chains per nanoparticle) [6]: 50
- Rg [6]: 141.0 nm
- Rh [7]: 123.5 nm
- Tt, Concentration 25 μM [8]: 49 C
- Tt, Concentration 50 μM [8]: 46 C
- Tt, Concentration 100 μM [8]: 41 C
- CAC [9, 10]: 6.6 µM

Molecule: CS(=O)(=O)OCCN1C(=O)C=CC1=O [SMM 3, N-2-Maleimidoethyl mesylate]
- #SMM/ATBP (number of SMM conjugated per ATBP) [5]: 6.9
- ρ (Rg/Rh) shape factor [6]: 1.06
- Nagg (chains per nanoparticle) [6]: 219
- Rg [6]: 115.6 nm
- Rh [7]: 109.1 nm
- Tt, Concentration 25 μM [8]: 45 C
- Tt, Concentration 50 μM [8]: 42 C
- Tt, Concentration 100 μM [8]: 38 C
- CAC [9, 10]: 3.2 µM

Molecule: CN1C(=O)C=CC1=O [SMM 5, N-methyl maleimide]
- #SMM/ATBP (number of SMM conjugated per ATBP) [5]: 6.8
- ρ (Rg/Rh) shape factor [6]: 0.978
- Nagg (chains per nanoparticle) [6]: 62
- Rg [6]: 45.7 nm
- Rh [7]: 46.8 nm
- Tt, Concentration 25 μM [8]: 45 C
- Tt, Concentration 50 μM [8]: 44 C
- Tt, Concentration 100 μM [8]: 42 C
- CAC [9, 10]: 4.9 µM

Molecule: CCN1C(=O)C=CC1=O [SMM 6, N-ethyl maleimide]
- #SMM/ATBP (number of SMM conjugated per ATBP) [5]: 7.1
- ρ (Rg/Rh) shape factor [6]: 1.004
- Nagg (chains per nanoparticle) [6]: 115
- Rg [6]: 62.5 nm
- Rh [7]: 62.3 nm
- Tt, Concentration 25 μM [8]: 47 C
- Tt, Concentration 50 μM [8]: 46 C
- Tt, Concentration 100 μM [8]: 40 C
- CAC [9, 10]: 3.8 µM

Molecule: O=C1C=CC(=O)N1c1ccccc1 [SMM 7, N-Phenyl maleimide]
- #SMM/ATBP (number of SMM conjugated per ATBP) [5]: 7.0
- ρ (Rg/Rh) shape factor [6]: 0.905
- Nagg (chains per nanoparticle) [6]: 112
- Rg [6]: 44.4 nm
- Rh [7]: 49.1 nm
- Tt, Concentration 25 μM [8]: 48 C
- Tt, Concentration 50 μM [8]: 44 C
- Tt, Concentration 100 μM [8]: 41 C
- CAC [9, 10]: 1.6 µM

Molecule: CC(C)(C)N1C(=O)C=CC1=O [SMM 8, N-^tbutyl maleimide]
- #SMM/ATBP (number of SMM conjugated per ATBP) [5]: 6.4
- ρ (Rg/Rh) shape factor [6]: 0.963
- Nagg (chains per nanoparticle) [6]: 93
- Rg [6]: 44.5 nm
- Rh [7]: 46.2 nm
- Tt, Concentration 25 μM [8]: 44 C
- Tt, Concentration 50 μM [8]: 47 C
- Tt, Concentration 100 μM [8]: 41 C
- CAC [9, 10]: 1.5 µM

B1: SKGPG-(AGVPG)160-(YG)6-(CGG)8-WP (protein)
chain: SKGPGAGVPGAGVPGAGVPGAGVPGAGVPGAGVPGAGVPGAGVPGAGVPGAGVPGAGVPGAGVPGAGVPGAGVPGAGVPGAGVPGAGVPGAGVPGAGVPGAGVPGAGVPGAGVPGAGVPGAGVPGAGVPGAGVPGAGVPGAGVPGAGVPGAGVPGAGVPGAGVPGAGVPGAGVPGAGVPGAGVPGAGVPGAGVPGAGVPGAGVPGAGVPGAGVPGAGVPGAGVPGAGVPGAGVPGAGVPGAGVPGAGVPGAGVPGAGVPGAGVPGAGVPGAGVPGAGVPGAGVPGAGVPGAGVPGAGVPGAGVPGAGVPGAGVPGAGVPGAGVPGAGVPGAGVPGAGVPGAGVPGAGVPGAGVPGAGVPGAGVPGAGVPGAGVPGAGVPGAGVPGAGVPGAGVPGAGVPGAGVPGAGVPGAGVPGAGVPGAGVPGAGVPGAGVPGAGVPGAGVPGAGVPGAGVPGAGVPGAGVPGAGVPGAGVPGAGVPGAGVPGAGVPGAGVPGAGVPGAGVPGAGVPGAGVPGAGVPGAGVPGAGVPGAGVPGAGVPGAGVPGAGVPGAGVPGAGVPGAGVPGAGVPGAGVPGAGVPGAGVPGAGVPGAGVPGAGVPGAGVPGAGVPGAGVPGAGVPGAGVPGAGVPGAGVPGAGVPGAGVPGAGVPGAGVPGAGVPGAGVPGAGVPGAGVPGAGVPGAGVPGAGVPGAGVPGAGVPGAGVPGAGVPGAGVPGAGVPGAGVPGAGVPGAGVPGAGVPGAGVPGAGVPGAGVPGAGVPGAGVPGAGVPGAGVPGAGVPGAGVPGAGVPGAGVPGAGVPGAGVPGYGYGYGYGYGYGCGGCGGCGGCGGCGGCGGCGGCGGWP
- ρ (Rg/Rh) shape factor [6]: 0.85
- Nagg (chains per nanoparticle) [6]: 62
- Rg [6]: 42.6 nm
- Rh [7]: 50 nm and 50.1 nm
- Tt, Concentration 25 μM [8]: 47 C
- Tt, Concentration 50 μM [8]: 44 C
- Tt, Concentration 100 μM [8]: 40 C
- Tt ([8]; FIG. 3(G), thermal turbidimetry at 350 nm): 47 °C
- CAC [9, 10]: 3.6 µM
- CAC ([9]; pyrene fluorescence assay): about 3.6 μM
